Data taken from the supplement of paper PMC10266784.

B1: library; numbered along this chain (parent)
chain: MAAAAAAAAEQQSSNGPVKKSMREKAVERRSVNKEHNSNFKAGYIPIDEDRLHKTGLRGRKGNLAICVIILLFILAVINLIITLVIWAVIRIGPNGCDSMEFHESGLLRFKQVSDMGVIHPLYKSTVGGRRNENLVITGNNQPIVFQQGTTKLSVENNKTSITSDIGMQFFDPRTQNILFSTDYETHEFHLPSGVKSLNVQKASTERITSNATSDLNIKVDGRAIVRGNEGVFIMGKTIEFHMGGNMELKAENSIILNGSVMVSTTRLPSSSSGDQLGSGDWVRYKLCMCADGTLFKVQVTSQNMGCQISDNPCGNTH

Variants of: B1
Experiment: SGCB cell-surface expression functional score (HA stain, bin4 vs bin1, normalised to synonymous) (log10 ratio); higher = more cell-surface SGCB (functional)
Summary of the method: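 HEK293 cells stably expressing alpha-, gamma- and delta-sarcoglycan received codon-saturation libraries of HA-tagged, YFP-fused human beta-sarcoglycan by lentiviral transduction at MOI <0.1, performed in duplicate. Cells positive for YFP were sorted after 72 hours and cultured for 5–7 days, then stained on ice with Alexa Fluor 647 anti-HA and fixed. Fixed cells were sorted into four 5% intensity bins and amplicon-sequenced, and the log ratio of highest-bin to lowest-bin variant frequency, as a median over codons and transductions, gives the functional score. Per section, synonymous variants were scaled to mean 0, SD 0.5.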

In order of falling “SGCB cell-surface expression functional score (log10)” value:
1. N253Q  1.07
2. M262Q  0.93
3. M247C  0.91
4. G259A  0.9
5. N217E  0.9
6. T238E  0.87
7. S260H  0.83
8. M243S  0.81
9. S260G  0.77
10. N253E  0.76
11. P269Y  0.73
12. S254Y  0.7
13. A6Q  0.69
14. R223N  0.66
15. L122I  0.65
16. M247A  0.65
17. G222E  0.65
18. T238I  0.62
19. Q201F  0.62
20. T186H  0.62
21. K237C  0.61
22. L268M  0.61
23. K41E  0.61
24. G245N  0.59
25. T150D  0.59
26. S279M  0.56
27. I218L  0.56
28. V226L  0.56
29. T265Y  0.55
30. N39E  0.54
31. T138N  0.54
32. L257F  0.54
33. P269I  0.5
34. P269C  0.49
35. E248L  0.48
36. V226E  0.47
37. K297N  0.46
38. N253Y  0.45
39. V27N  0.45
40. L57A  0.45
41. I81H  0.45
42. N246G  0.45
43. T317G  0.44
44. S270Y  0.41
45. T266S  0.4
46. C67Q  0.4
47. S31I  0.39
48. F170I  0.36
49. N33A  0.36
50. V283N  0.35
51. D221G  0.35
52. T301D  0.33
53. K19W  0.32
54. L52P  0.32
55. I47C  0.31
56. R30C  0.31
57. D50G  0.3
58. C67K  0.29
59. A9E  0.28
60. L179K  0.28
61. T186K  0.28
62. H190S  0.28
63. C67P  0.26
64. D50S  0.26
65. S13E  0.25
66. A291Y  0.25
67. K297R  0.25
68. N63Y  0.25
69. N63K  0.24
70. T175R  0.24
71. K54A  0.23
72. G16W  0.23
73. A2K  0.23
74. I45E  0.23
75. E240I  0.23
76. S264H  0.22
77. W282H  0.22
78. T55R  0.21
79. K124C  0.21
80. L268V  0.2
81. T265E  0.2
82. N177E  0.19
83. N15R  0.19
84. S31G  0.19
85. A9L  0.19
86. S31H  0.19
87. T294M  0.19
88. A9K  0.19
89. M305I  0.19
90. S193A  0.18
91. K19R  0.18
92. K25L  0.18
93. S193R  0.17
94. E10Y  0.17
95. N95S  0.16
96. Q147S  0.16
97. M22T  0.16
98. L64K  0.15
99. A8I  0.15
100. S310V  0.14
101. D50A  0.14
102. T301Y  0.14
103. H103R  0.14
104. A88F  0.14
105. T294V  0.14
106. G59P  0.12
107. T294N  0.12
108. Q148A  0.12
109. V85G  0.11
110. V32S  0.11
111. I69R  0.11
112. N132E  0.11
113. N33R  0.1
114. R60N  0.1
115. W282Q  0.08
116. S279C  0.08
117. T55L  0.08
118. Q148T  0.08
119. S271L  0.07
120. C314A  0.07
121. L72F  0.07
122. L71T  0.07
123. L122C  0.06
124. I70Q  0.06
125. D98T  0.06
126. S31T  0.06
127. K219R  0.05
128. K25P  0.05
129. G278N  0.05
130. V68I  0.05
131. S254K  0.05
132. S105D  0.04
133. K41V  0.04
134. Y44K  0.04
135. V77F  0.04
136. N312F  0.03
137. K111W  0.03
138. V232F  0.02
139. L268R  0.02
140. R174A  0.02
141. L71M  0.01
142. M243E  0.01
143. T317F  0.01
144. D50Y  0
145. G59N  0
146. A76V  0
147. N253I  0
148. L80I  -0.01
149. F170T  -0.01
150. A65T  -0.01
151. I69T  -0.01
152. V118A  -0.02
153. G16I  -0.02
154. N39L  -0.02
155. V18N  -0.03
156. I81V  -0.03
157. R131F  -0.03
158. Y285H  -0.04
159. I45G  -0.04
160. R109I  -0.04
161. L71P  -0.04
162. V32K  -0.04
163. G315C  -0.05
164. V85T  -0.05
165. L72H  -0.05
166. T186F  -0.05
167. S279I  -0.06
168. Q147I  -0.06
169. A212V  -0.06
170. M1R  -0.06
171. S13R  -0.07
172. P313H  -0.07
173. G293I  -0.08
174. D275T  -0.08
175. L71D  -0.08
176. F171N  -0.08
177. I218A  -0.08
178. Y285D  -0.09
179. S38I  -0.09
180. S105T  -0.09
181. K159V  -0.09
182. L257G  -0.1
183. I78D  -0.1
184. E35F  -0.1
185. R60W  -0.101
186. N33L  -0.11
187. N39F  -0.12
188. V261M  -0.12
189. S279F  -0.13
190. L295P  -0.13
191. I255K  -0.13
192. R223V  -0.13
193. C288Q  -0.16
194. G59R  -0.17
195. R131T  -0.17
196. S273G  -0.18
197. R267P  -0.19
198. K54M  -0.19
199. K41C  -0.2
200. P192S  -0.21
201. V85C  -0.21
202. C307L  -0.21
203. N132I  -0.22
204. V195T  -0.23
205. A6H  -0.23
206. E156N  -0.23
207. Q148H  -0.24
208. Y285P  -0.24
209. D215S  -0.25
210. S31Y  -0.26
211. K25F  -0.28
212. K219W  -0.31
213. P46W  -0.33
214. K111L  -0.35
215. S31Q  -0.35
216. S99W  -0.35
217. C307F  -0.36
218. V89G  -0.36
219. G228T  -0.37
220. L71C  -0.37
221. E156Y  -0.38
222. I86E  -0.39
223. Q147H  -0.39
224. V263S  -0.39
225. T317H  -0.39
226. N141E  -0.4
227. K124A  -0.41
228. S181D  -0.41
229. G149A  -0.43
230. V145R  -0.43
231. E156L  -0.43
232. G259C  -0.44
233. I81Y  -0.45
234. K111N  -0.45
235. G259F  -0.46
236. T138Q  -0.47
237. C97P  -0.47
238. K124E  -0.5
239. Q142R  -0.5
240. T138A  -0.51
241. C290L  -0.51
242. H187I  -0.51
243. I137V  -0.52
244. K202N  -0.53
245. L179Y  -0.54
246. E188N  -0.55
247. G59A  -0.59
248. G128R  -0.6
249. A2E  -0.61
250. N132W  -0.63
251. G106K  -0.63
252. E24M  -0.63
253. I218P  -0.63
254. G228N  -0.63
255. T126D  -0.63
256. D311Y  -0.64
257. N134I  -0.65
258. G139C  -0.65
259. Q303A  -0.65
260. G106D  -0.65
261. N79M  -0.67
262. K286I  -0.67
263. S31M  -0.69
264. I90Q  -0.71
265. G293K  -0.71
266. G194T  -0.71
267. T209L  -0.72
268. S197H  -0.72
269. G129V  -0.74
270. G306V  -0.76
271. C307T  -0.77
272. K237Q  -0.79
273. M262D  -0.81
274. G129I  -0.84
275. D172W  -0.88
276. F241T  -0.91
277. F170G  -0.91
278. T151G  -0.94
279. V89M  -0.96
280. D115K  -0.97
281. I86S  -0.98
282. L153T  -0.99
283. T138P  -1
284. V155T  -1.02
285. S302D  -1.03
286. S210Q  -1.03
287. Y184S  -1.04
288. G259M  -1.05
289. R130D  -1.07
290. I239P  -1.08
291. H120G  -1.08
292. G129Q  -1.09
293. V195P  -1.1
294. G231K  -1.12
295. G139P  -1.13
296. G117W  -1.14
297. F146P  -1.14
298. M168S  -1.21
299. I208N  -1.22
300. R109N  -1.22
301. T182R  -1.25
302. S210L  -1.26
303. L257Q  -1.3
304. I119F  -1.3
305. D215C  -1.31
306. G228Q  -1.35
307. G117Y  -1.35
308. S210V  -1.36
309. M289G  -1.37
310. L198Q  -1.42
311. T182H  -1.44
312. V89Q  -1.44
313. I218D  -1.45
314. P192D  -1.49
315. S181V  -1.52
316. G139F  -1.58
317. I309D  -1.61
318. V232E  -1.63
319. H187G  -1.69
320. R91F  -1.71
321. N304M  -1.75
322. F180Y  -1.77
323. L277K  -1.8
324. A224P  -1.81
325. L295W  -1.84
326. A251W  -1.85
327. S164P  -1.87
328. I92H  -1.9
329. C97G  -1.91
330. V300K  -2.02
331. R284N  -2.05
332. G236W  -2.11
333. K196D  -2.29
334. I208E  -2.83
